Test results: article PMC4607316 (Nature, 2015)
Where a chain is given by its changes, count along the chain named. Names and notes keep the numbering of the source.

B1: Syt1 E295A, Y338W (natural protein, rat, UniProt P21707 1-421, looked up)
chain: MVSASHPEALAAPVTTVATLVPHNATEPASPGEGKEDAFSKLKQKFMNELHKIPLPPWALIAIAIVAVLLVVTCCFCVCKKCLFKKKNKKKGKEKGGKNAINMKDVKDLGKTMKDQALKDDDAETGLTDGEEKEEPKEEEKLGKLQYSLDYDFQNNQLLVGIIQAAELPALDMGGTSDPYVKVFLLPDKKKKFETKVHRKTLNPVFNEQFTFKVPYSELGGKTLVMAVYDFDRFSKHDIIGEFKVPMNTVDFGHVTEEWRDLQSAEKEEQEKLGDICFSLRYVPTAGKLTVVILAAKNLKKMDVGGLSDPYVKIHLMQNGKRLKKKKTTIKKNTLNPWYNESFSFEVPFEQIQKVQVVVTVLDYDKIGKNDAIGKVFVGYNSTGAELRHWSDMLANPRRPIAQWHTLQVEEEVDAMLAVKK
B2: Syt1 R398Q, R399Q (natural protein, rat, UniProt P21707 1-421, looked up)
chain: B1 chain with A295E, W338Y, R398Q, R399Q
B3: Syt1 R281A, R398A, R399A (natural protein, rat, UniProt P21707 1-421, looked up)
chain: B1 chain with R281A, A295E, W338Y, R398A, R399A

Target: syntaxin-1A (endogenous, cultured mouse neurons) (mouse (endogenous in cultured …, UniProt O35526 1-288))
Test: co-IP

Chain of syntaxin-1A (endogenous, cultured mouse neurons) (mouse (O35526 whole entry): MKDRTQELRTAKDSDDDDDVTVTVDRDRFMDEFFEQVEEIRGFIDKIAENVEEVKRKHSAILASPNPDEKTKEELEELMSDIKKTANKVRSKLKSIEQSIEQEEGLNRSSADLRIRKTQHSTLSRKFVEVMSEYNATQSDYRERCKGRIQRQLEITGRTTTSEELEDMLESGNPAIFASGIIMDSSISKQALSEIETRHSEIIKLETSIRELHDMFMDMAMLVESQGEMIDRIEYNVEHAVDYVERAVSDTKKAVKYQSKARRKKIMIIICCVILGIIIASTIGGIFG

Binder	reduction of co-immunoprecipitated Syt1 against Syt1 WT [%]
B1	~50
B2	~50
B3	~50
